Reference: article PMC12629592, “MCAK recognizes the nucleotide-dependent feature at growing microtubule ends” (eLife, 2025)
Blank lines part the entries; values can stand above or below the molecule they belong to.

What was measured:
[1] = target: tubulin from porcine brain, polymerised into microtubules (porcine) (UniProt P02550); test: single-molecule TIRF microscopy; single-molecule localisation at growing microtubule ends (tubulin 12 μM): 1 nM GFP-MCAK with 1 mM ATP, 10 nM EB1-GFP or 1 nM XMAP215-GFP, each alone; apparent constants
[2] = target: the molecule itself; test: SEC; Superose 6 Increase 5/150 GL; BRB80 with 50 mM KCl and 1 mM ATP
[3] = target: tubulin from porcine brain, polymerised into microtubules (porcine) (UniProt P02550); test: single-molecule TIRF microscopy; binding events on the lattice of dynamic microtubules (tubulin 16 μM); GFP-MCAK with 1 mM AMPPNP
[4] = target: tubulin from porcine brain, polymerised into microtubules (porcine) (UniProt P02550); test: single-molecule TIRF microscopy; binding events at the minus-ends of dynamic microtubules; GFP-MCAK, 1 mM ATP; BRB80 + 50 mM KCl, 35°C; apparent constants, per tubulin dimer
[5] = target: tubulin from porcine brain, polymerised into microtubules (porcine) (UniProt P02550); test: single-molecule TIRF microscopy; binding events at the growing plus-end of dynamic microtubules (tubulin 16 μM); GFP-MCAK with 1 mM ADP; apparent constants, per tubulin dimer
[6] = target: tubulin from porcine brain, polymerised into microtubules (porcine) (UniProt P02550); test: single-molecule TIRF microscopy; binding events at the growing plus-end of dynamic microtubules (tubulin 16 μM); GFP-MCAK with 1 mM AMPPNP; apparent constants, per tubulin dimer
[7] = target: tubulin from porcine brain, polymerised into microtubules (porcine) (UniProt P02550); test: single-molecule TIRF microscopy; binding events at the growing plus-end of dynamic microtubules (tubulin 16 μM); GFP-MCAK without nucleotide (APO); apparent constants, per tubulin dimer
[8] = target: tubulin from porcine brain, polymerised into microtubules (porcine) (UniProt P02550); test: single-molecule TIRF microscopy; single-molecule localisation at growing microtubule ends (tubulin 12 μM): 1 nM GFP-MCAK with 1 mM ATP, 10 nM EB1-GFP or 1 nM XMAP215-GFP, each alone; apparent constants; remark: listed apart in the source
[9] = target: tubulin from porcine brain, polymerised into microtubules (porcine) (UniProt P02550); test: single-molecule TIRF microscopy; binding events on the lattice of dynamic microtubules (tubulin 16 μM) grown from immobilised GMPCPP seeds; 10 nM GFP-MCAK (10 nM K524A, 30 nM V298S); 1 mM ATP; BRB80 + 50 mM KCl, 35°C; apparent constants, per tubulin dimer
[10] = target: tubulin from porcine brain, polymerised into microtubules (porcine) (UniProt P02550); test: single-molecule TIRF microscopy; binding events at the growing plus-end (end region 162 nm FWHM) of dynamic microtubules (tubulin 16 μM) grown from immobilised GMPCPP seeds; 10 nM GFP-MCAK (10 nM K524A, 30 nM V298S); 1 mM ATP; BRB80 + 50 mM KCl, 2 mM GTP, 35°C; apparent constants, per tubulin dimer

Kd [1]: 722 µM
Molecule: EB1-GFP (from UniProt Q15691 1-268) (natural protein)

dwell time [3]: 1.46 s
Kd [4]: 40 µM
RE/L (kon at the end over kon on the lattice) [4]: 13
Kd [5]: 163 µM
RE/L (kon at the plus-end over kon on the lattice) [5]: 2
dwell time [5]: 0.46 s
Kd [6]: 61 µM
RE/L (kon at the plus-end over kon on the lattice) [6]: 11
dwell time [6]: 3.32 s
Kd [7]: 1.8 µM
RE/L (kon at the plus-end over kon on the lattice) [7]: 2
dwell time [7]: 1.89 s
dwell time of distally distributed molecules at the growing end [8]: 0.8 s
dwell time of proximally distributed molecules at the growing end [8]: 0.7 s
Kd [9]: 1060 µM
dwell time [9]: 0.62 s
kon [9]: 2800 M⁻¹ s⁻¹
Kd [10]: 69 µM
dwell time [10]: 0.75 s
effective dissociation constant (the microtubule end taken as one multivalent receptor, end length 160 nm) [10]: 260 nM
kon [10]: 22600 M⁻¹ s⁻¹
B1: GFP-MCAK (mitotic centromere-associated kinesin, wild type) (enzyme, UniProt Q99661 1-725, looked up)
chain: MAMDSSLQARLFPGLAIKIQRSNGLIHSANVRTVNLEKSCVSVEWAEGGATKGKEIDFDDVAAINPELLQLLPLHPKDNLPLQENVTIQKQKRRSVNSKIPAPKESLRSRSTRMSTVSELRITAQENDMEVELPAAANSRKQFSVPPAPTRPSCPAVAEIPLRMVSEEMEEQVHSIRGSSSANPVNSVRRKSCLVKEVEKMKNKREEKKAQNSEMRMKRAQEYDSSFPNWEFARMIKEFRATLECHPLTMTDPIEEHRICVCVRKRPLNKQELAKKEIDVISIPSKCLLLVHEPKLKVDLTKYLENQAFCFDFAFDETASNEVVYRFTARPLVQTIFEGGKATCFAYGQTGSGKTHTMGGDLSGKAQNASKGIYAMASRDVFLLKNQPCYRKLGLEVYVTFFEIYNGKLFDLLNKKAKLRVLEDGKQQVQVVGLQEHLVNSADDVIKMIDMGSACRTSGQTFANSNSSRSHACFQIILRAKGRMHGKFSLVDLAGNERGADTSSADRQTRMEGAEINKSLLALKECIRALGQNKAHTPFRESKLTQVLRDSFIGENSRTCMIATISPGISSCEYTLNTLRYADRVKELSPHSGPSGEQLIQMETEEMEACSNGALIPGNLSKEEEELSSQMSSFNEAMTQIRELEEKAMEELKEIIQQGPDWLELSEMTEQPDYDLETFVNKAESALAQQAKHFSALRDVIKALRLAMQLEEQASRQISSKKRPQ
notes: MCAK (mitotic centromere-associated kinesin, kinesin-13); GFP-MCAK monomer printed as 110 kDa; Dimer by size-exclusion chromatography; Used with 1 mM ATP, AMPPNP, ADP or without nucleotide (APO); Purification adapted from Helenius et al., 2006; The printed residue numbers (K524, V298, T537) and the 110 kDa mass fit whole human MCAK (surmised); also called MCAK‧ATP; MCAK‧AMPPNP; source: Sf9, …
stoichiometry N [2]: 2
